Data on one protein can be found in paper PMC5030251, “Metal-Induced Stabilization and Activation of Plasmid Replication Initiator RepB” (Frontiers in Molecular Biosciences, 2016).

This data set deals with the molecule itself. In words: AUC; sedimentation equilibrium; RepB6 samples heated to temperatures from 25°C up to 45°C (end of the first thermal transition).

B1: RepB, replication initiator protein of the streptococcal plasmid pMV158 (enzyme, UniProt P13921 1-210, looked up)
chain: MAKEKARYFTFLLYPESIPSDWELKLETLGVPMAISPLHDKDKSSIKGQKYKKAHYHVLYIAKNPVTADSVRKKIKLLLGEKSLAMVQVVLNVENMYLYLTHESKDAIAKKKHVYDKADIKLINNFDIDRYVTLDVEEKTELFNVVVSLIRAYTLQNIFDLYDFIDENGETYGLTINLVNEVIAGKTGFMKLLFDGAYQRSKRGTKNEER
notes: RepB, replication initiator (Rep) protein encoded by plasmid pMV158; 210 amino acid polypeptide purified as a hexamer; In assay a2 the protein had been heated beyond its first, irreversible thermal transition (OBD denatured); also called RepB6; full-length hexameric RepB; source: purified as described previously (Ruiz-Masó et al., 2004; Boer et al., 2009)
In general, stoichiometry N refers to the number of molecules, sites or subunits per partner or assembly. Turning to B1, the “stoichiometry N” value is around 6.
